{"source": "patent US6468985B1", "about": "“Retinoblastoma protein-interacting zinc finger proteins” (The Burnham Institute, priority 1994, dated 2002)", "molecules": {"B1": {"name": "GST-RIZ (245-573): glutathionine S-transferase fused to RIZ fragment a.a. 245-573 containing zinc fingers 1-3 (protein)", "chain": "CEPQPEVDGKQEVTDCEVNDVEEEELEEEEELEEEEEEELGEDGVEEADMPNESSAKEPEIRCEEKPEDLLEEPQSMSNEAREDSPDVTPPPHTPRAREEANGDVLETFMFPCQHCERKFATKQGLERHMHIHISTINHAFKCKYCGKRFGTQINRRRHERRHETGLKRRPSMTLQSSEDPDDGKGENVTSKDESSPPQLGQDCLILNSEKTSQEVLNSSFVEENGEVKELHPCKYCKKVFGTHTNMRRHQRRVHERHLIPKGVRRKGGLLEEPQPPAEQAPPSQNVYVPSTEPEEEGETDDVYIMDISSNISENLNYYIDGKIQTNSS", "modifications": "left off: a dimerising Fc or GST"}}, "key": {"B3 mutant of Rb": {"molecular_target": "T1, B3 mutant of Rb (Homo sapiens, UniProt P06400)", "T1 construct": "made in house; host or cells: in vitro transcription/translation", "T1 sequence (P06400 1-803)": "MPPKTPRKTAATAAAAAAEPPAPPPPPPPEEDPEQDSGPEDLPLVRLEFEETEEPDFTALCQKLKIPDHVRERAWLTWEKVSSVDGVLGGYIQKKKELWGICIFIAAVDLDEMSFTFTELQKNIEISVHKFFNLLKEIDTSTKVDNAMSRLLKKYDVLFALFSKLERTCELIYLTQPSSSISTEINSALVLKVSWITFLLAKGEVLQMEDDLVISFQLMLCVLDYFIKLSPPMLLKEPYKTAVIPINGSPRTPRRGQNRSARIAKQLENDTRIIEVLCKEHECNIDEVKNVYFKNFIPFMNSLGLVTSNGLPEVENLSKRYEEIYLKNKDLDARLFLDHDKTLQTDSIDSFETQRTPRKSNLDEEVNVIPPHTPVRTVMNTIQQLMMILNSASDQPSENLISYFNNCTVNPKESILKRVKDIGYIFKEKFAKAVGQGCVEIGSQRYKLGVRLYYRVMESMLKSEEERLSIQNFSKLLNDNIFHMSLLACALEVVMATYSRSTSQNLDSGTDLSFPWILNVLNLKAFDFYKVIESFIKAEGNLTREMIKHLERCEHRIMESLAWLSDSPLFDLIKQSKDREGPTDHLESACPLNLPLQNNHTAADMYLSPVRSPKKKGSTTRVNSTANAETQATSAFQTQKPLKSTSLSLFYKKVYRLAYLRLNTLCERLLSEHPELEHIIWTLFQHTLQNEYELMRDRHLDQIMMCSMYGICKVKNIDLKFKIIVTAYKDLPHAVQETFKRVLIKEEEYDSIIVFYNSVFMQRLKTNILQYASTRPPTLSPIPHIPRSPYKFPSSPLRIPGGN", "test": "binding of GST-RIZ (245-573) to 35S-labeled Rb mutant, immunoprecipitation with anti-RIZ antiserum", "settings": "deletion C-terminal to the Rb binding pocket", "protocol": "(§1) The 56 kD Rb fragment that binds to RIZ is a C-terminal fragment containing the Rb pocket binding region and a C-terminal extension. To further define the portion of 56 kD Rb that binds to RIZ, several Rb mutant polypeptides were tested for binding to RIZ. Mutant and full length Rb were cloned and in vitro transcribed/translated as described previously (Huang et al., supra, 1990). H209 is a point mutation resulting in a single amino acid change in Rb that was identified in the small cell lung cancer H209 cell line (American Type Culture Collection (ATCC) #HTB 172). The various Rb forms were tested for binding to glutathionine S-transferase (GST) fused to a fragment of RIZ from amino acid position 245-573 (GST-RIZ (245-573)). This RIZ fragment contains all of the E1A motifs related to binding Rb and was constructed by cloning a Stu I-Hpa I RIZ fragment (nucleotide 795-3068) into vector pBSK+ to make pBSK+SH. An Eco RI fragment was removed from pBSK+SH and ligated into pGEX-KG to produce vector pKG7.1S containing GST-RIZ (245-573).\n(§2) The binding between purified GST-RIZ (245-573) and the above radiolabeled Rb wild-type and deletion mutants was determined by immunoprecipitation with an anti-RIZ antiserum followed by SDS-PAGE and autoradiography. […]"}, "[1]": {"test_system": "Rb having a deletion within the pocket", "test": "binding of GST-RIZ (245-573) to 35S-labeled Rb pocket deletion mutants, immunoprecipitation with anti-RIZ antiserum", "protocol": "as §1, §2"}, "rat ovary genomic DNA": {"test_system": "rat ovary genomic DNA", "test": "filter-based DNA-binding assay", "excerpt": "To evaluate whether the zinc finger domains of RIZ can bind to DNA, the RIZ finger motifs 1 to 3 from amino acid position 245-573 or finger 4 to 6 from amino acid position 1114-1260 were expressed as GST fusion proteins, GSTZ13 and GSTZ46, respectively. The GST-RIZ fragments were purified by glutathionine agarose chromatography (Guan and Dixon, Anal. Biochem. 192:262-267 (1991), which is incorporated herein by reference) and evaluated for binding in a filter-based DNA-binding assay (Sukegawa and Blobel, Cell 72:29-38 (1993), which is incorporated herein by reference). To obtain GSTZ46, a fragment encoding RIZ (1114-1260) was made by PCR using primers 5′-GTGGTCCAAG AAACATTC-3′ (SEQ ID NO: 17) and 5′-TCGTGTAAAG CTCTTCAG-3′ (SEQ ID NO: 18) and pCMVRIZ as template. The PCR fragment was cloned into pBKS+, then into pGEX-KG (Guan and Dixon, supra, 1991).\nThe filter-based DNA binding assay was performed by electrophoresing 0.5 μg of purified GST or GST-RIZ fusion proteins by SDS-PAGE and transferring the proteins to nitrocellulose. The proteins were renatured by incubating the nitrocellulose for 3 hr in binding buffer (50 mM Tris-HCl, pH 8, 100 mM KCl, 0.1% Triton X-100™, 10% glycerol, and 0.1 mM ZnCl2). ^32P-labeled, randomly sheared rat ovary genomic DNA was added to the buffer and the nitrocellulose was incubated for an additional 3 hr. […]"}}}
{"molecule": "B1", "values": [{"measurement": "binding to B3 mutant of Rb", "setting": "B3 mutant of Rb", "value": "showed binding"}, {"measurement": "binding to three forms of Rb having a deletion within the pocket", "setting": "[1]", "value": "failed to bind"}, {"measurement": "binding to 32P-labeled rat DNA", "setting": "rat ovary genomic DNA; 0.5 μg protein, binding buffer with 0.1 mM ZnCl2", "value": "bound"}, {"measurement": "zinc dependence of DNA binding", "setting": "rat ovary genomic DNA; with ZnCl2 versus 10 mM EDTA, 2 mM DTT and no ZnCl2", "value": "Zn^++ ion dependent manner"}]}
